This is an account of results in patent US11840557B2, “Wnt7 variants capable of activating g-protein coupled receptor (Gpr)124/Reck/frizzled/lipoprotein receptor-related protein (LRP)-mediated Wnt signaling” (UNIVERSITÉ LIBRE DE BRUXELLES, priority 2018, dated 2023).

In one data set the test system is wnt7aa morphants. In words: Trunk DRG rescue in wnt7aa morphant zebrafish larvae. Format: in vivo, Danio rerio. The conditions noted are these: 100 pg mRNA injection, 72 hpf. As for the experimental part: Zebrafish (Danio rerio) were raised and handled under standard conditions following the rules of the State of Belgium (protocol approval number: CEBEA-IBMM-2017-22:65). The following line was used: Tg(−17.0neurog1:EGFP)^w61 (McGraw et al., J. Neurosci 28(47):12558-69 (2008)).
(§1) The following splice-blocking morpholino (MOs) (GeneTools, Eugene, OR) were injected into embryos at the one-cell stage: wnt7aa ([…], 6 ng) (SEQ ID NO.: 123). Synthetic mRNAs were transcribed from pCS2 plasmids after NotI digestion using the mMessage mMachine SP6 Kit (Ambion, Carlsbad, CA) and injected into one-cell stage zebrafish embryo. For Xenopus laevis microinjection, 15 pg of wnt7a or wnt7a^K190A or wnt7a^1-278 mRNA were injected into one ventral blastomere of the four-cell stage embryo.
(§2) zebrafish embryos were imaged with an LSM710 confocal microscope and images were processed in ImageJ. Images of zebrafish development phenotypes were taken on Leica M165 FC. Xenopus larvae were imaged with an Olympus SZX16.

A further data set relates to all 10 Fz genes. Nature of the data set: STF luciferase assay after co-transfection with all 10 Fz genes, no Gpr124/Reck. In kind it is cell-based. As to conditions: in the absence of Gpr124/Reck. As for the experimental part:
Cells were plated into 96-well plates and transfected after 24 h in triplicate with Lipofectamine 2000 (Invitrogen, Carlsbad, Calif.). The amount of plasmid DNA transfected per well was optimized for each expression vector: Renilla luciferase (0.5 ng), Wnt (20 ng), Fz (5 ng), LRP (2.5 ng), Gpr124 (10 ng), Reck (10 ng) unless otherwise indicated. The total amount of DNA was adjusted to 100 ng per well with the empty pCS2 vector. Cells were harvested in passive lysis buffer (E1960, Promega, Wisconsin) and the activities of the Firefly and Renilla luciferases were measured sequentially using the Dual-Luciferase Reporter Assay system (E1960, Promega, Madison, Wis.) 48 h post-transfection.

The next data set has as its system zebrafish zygote. Format: in vivo, Danio rerio. As to conditions: injection in zygote, 3 dpf larvae. As for the experimental part: as §1, §2
Data set [1] relates to Wnt7aa^−/− mutant zebrafish. In words: Transgenic endothelial expression (kdrl promoter) in Wnt7aa−/− zebrafish: hindbrain CtAs and GLUT1 staining. As to conditions: 60 hpf embryos. Format: in vivo, Danio rerio. An excerpt:
(A) Dorsal views of the cerebral vasculatures of 60 hpf WT or Wnt7aa^−/− Tg(kdrl:EGFP) embryos. In Wnt7a^−/− mutants, the intracerebral CtAs are lacking. Wnt7, Wnt7a^K190A or Wnt7a^1-278 were transiently expressed in the endothelium of Wnt7aa^−/− embryos under the control of an endothelial-specific kdrl (Vascular endothelial growth factor receptor kdr-like) promoter. The Wnt7 ligands were expressed as a biscistronic construct with BFP (Blue Fluorescent Protein) used as transgenesis marker. In contrast to uninjected embryos, Wnt7, Wnt7a^K190A or Wnt7a^1-278 restore hindbrain CtAs formation in Wnt7aa^−/− mutants as quantified in (B). (C) Anti-GLUT1 staining of the CtAs after transgenic expression of Wnt7, Wnt7a^K190A and Wnt7a^1-278 in 60 hpf Wnt7aa^−/− embryos. Transgenic expression was achieved as in (A).
Mouse Wnt7, Wnt7a^K190A and Wnt7a^1-278 were transiently expressed in the endothelium of Wnt7aa^−/− embryos under the control of an endothelial-specific kdrl (Vascular endothelial growth factor receptor kdr-like) promoter. The Wnt7 ligands were expressed as a biscistronic construct with BFP (Blue Fluorescent Protein) as transgenesis marker.

Some results are limits rather than exact numbers.

B1: Wnt7a^K190A: single-residue variant of full-length mWnt7a (precursor numbering); Gpr124/Reck-selective agonist (protein)
chain: LGASIICNKIPGLAPRQRAICQSRPDAIIVIGEGSQMGLDECQFQFRNGRWNCSALGERTVFGKELKVGSREAAFTYAIIAAGVAHAITAACTQGNLSDCGCDKEKQGQYHRDEGWKWGGCSADIRYGIGFAKVFVDAREIKQNARTLMNLHNNEAGRAILEENMKLECKCHGVSGSCTTKTCWTTLPQFRELGYVLKDKYNEAVHVEPVRASRNKRPTFLKIKKPLSYRKPMDTDLVYIEKSPNYCEEDPVTGSVGTQGRACNKTAPQASGCDLMCCGRGYNTHQYARVWQCNCKFHWCCYVKCNTCSERTEMYTCK
modifications: human Wnt7a variant K159A
In the case of B1, in the data set with wnt7aa morphants, the DRG rescue result was “significant DRG rescues”. Further, the “signaling through any Fz” value with all 10 Fz genes was “failed to signal through any Fz”. In the data set on zebrafish zygote, the “mRNA dose well tolerated without posteriorizing or gross anatomical alterations” value is no more than 100 pg. For the same molecule, the “blood-brain barrier (GLUT1 expression)” value in data set [1] (anti-GLUT1 staining of CtAs) is “restored blood-brain barrier”. In data set [1] (transient endothelial expression), the “brain angiogenesis / hindbrain CtAs formation” value is given as “triggered GPR124/RECK-dependent brain angiogenesis”.
